B1: polyA TCG (linear DNA) (ssDNA)
DNA: AAAAAAAATCGAAAA
B2: DNA hairpin (structured_DNA)
DNA: GCCATCATTCGATGGG
B3: RNA hairpin (structured_RNA)
RNA: GCCAUCUAUCGAUGG

Assays:
Assay in all cases: fluorescence anisotropy
[1] = target: T1, A3B-CTD E255A (inactive, 'WT') (Homo sapiens, UniProt Q9UH17 187-382, E255A)
A3B-CTD P206G = A3B-CTD P206G (Homo sapiens, UniProt Q9UH17 187-382, E255A;P206G)
A3B-CTD R211A = A3B-CTD R211A (Homo sapiens, UniProt Q9UH17 187-382, E255A;R211A)
A3B-CTD Y315F = A3B-CTD Y315F (Homo sapiens, UniProt Q9UH17 187-382, E255A;Y315F)
Chain of A3B-CTD Y315F (Q9UH17 187-382 E255A/Y315F): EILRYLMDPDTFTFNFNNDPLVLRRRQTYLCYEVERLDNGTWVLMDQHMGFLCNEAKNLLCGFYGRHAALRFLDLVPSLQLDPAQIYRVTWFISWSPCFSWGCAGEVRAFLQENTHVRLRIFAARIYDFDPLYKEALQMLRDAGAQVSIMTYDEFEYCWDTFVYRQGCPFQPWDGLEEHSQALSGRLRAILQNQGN

[2] = target: T1, A3B-CTD E255A (inactive, 'WT'); remark: listed apart in the source

T1 sequence (Q9UH17 187-382 E255A): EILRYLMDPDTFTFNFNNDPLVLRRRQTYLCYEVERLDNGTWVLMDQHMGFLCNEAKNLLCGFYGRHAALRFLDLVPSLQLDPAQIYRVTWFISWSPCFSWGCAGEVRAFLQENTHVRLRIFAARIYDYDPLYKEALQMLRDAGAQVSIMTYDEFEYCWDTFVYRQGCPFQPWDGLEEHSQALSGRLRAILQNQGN
Chain of A3B-CTD P206G (Q9UH17 187-382 P206G/E255A): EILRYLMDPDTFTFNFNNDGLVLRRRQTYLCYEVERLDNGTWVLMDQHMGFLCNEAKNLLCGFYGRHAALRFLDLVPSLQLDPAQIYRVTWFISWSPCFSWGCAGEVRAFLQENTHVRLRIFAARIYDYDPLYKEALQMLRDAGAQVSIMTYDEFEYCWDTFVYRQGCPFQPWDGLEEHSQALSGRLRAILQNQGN
Chain of A3B-CTD R211A (Q9UH17 187-382 R211A/E255A): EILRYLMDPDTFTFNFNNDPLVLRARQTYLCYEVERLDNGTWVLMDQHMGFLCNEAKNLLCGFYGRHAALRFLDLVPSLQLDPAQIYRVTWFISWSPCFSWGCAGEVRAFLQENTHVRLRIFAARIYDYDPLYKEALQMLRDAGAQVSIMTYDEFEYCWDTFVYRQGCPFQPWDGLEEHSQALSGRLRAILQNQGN

| Binder | Kd [1] | binding result (A3B-CTD P206G) | binding result (A3B-CTD R211A) | binding result (A3B-CTD Y315F) | binding result [2] |
| --- | --- | --- | --- | --- | --- |
| B1 | 5.4 µM | no binding | no binding |  |  |
| B2 | 2 µM | no binding | no binding | binds |  |
| B3 |  |  |  |  | no binding |
